Six molecules from publication PMC3683929 can be followed below.

Broadly, the Kd is the constant that tells how readily two partners part at equilibrium. A high value points to weaker binding.

Series [1] has as its target T1, MBP-hnRNP A1 (mouse, UniProt P49312 1-320). Kind of series: fluorescence polarization. (In general: Polarisation of emitted light reports the rotation of a fluorescent probe.)
The target of series [2] is T1, MBP-hnRNP A1. The experiment in a line: EMSA.
Series [3] deals with T1, MBP-hnRNP A1. The experiment in a line: FP/EMSA. In general terms: A gel shift assay detects complexes by their altered migration in electrophoresis.

T1 sequence (P49312 whole entry): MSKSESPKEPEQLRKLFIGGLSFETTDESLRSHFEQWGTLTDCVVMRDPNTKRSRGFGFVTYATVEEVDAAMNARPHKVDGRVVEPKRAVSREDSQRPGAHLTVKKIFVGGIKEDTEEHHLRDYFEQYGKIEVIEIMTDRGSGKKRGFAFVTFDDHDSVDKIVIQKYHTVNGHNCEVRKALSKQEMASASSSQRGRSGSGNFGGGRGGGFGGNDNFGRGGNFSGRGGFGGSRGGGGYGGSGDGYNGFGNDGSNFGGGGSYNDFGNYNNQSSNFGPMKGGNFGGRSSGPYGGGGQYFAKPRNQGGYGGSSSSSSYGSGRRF

B1: Mag 15 nt U7U8 (U8U9 in Table 1) (structured_RNA)
RNA: GGAGGUAGGUUUCGG
For the molecule B1, the Kd was determined as 92 ± 37 nM with MBP-hnRNP A1 [1] and 171 ± 48 nM in the series with MBP-hnRNP A1 [2].

B2: Mag 10 nt G4A (ssRNA)
RNA: AGGUAAGUUC
With B2, the binding result in the series with MBP-hnRNP A1 [2] is listed as “no binding”.

B3: Mag 15 nt G7G8 (G8G9 in Table 1) (structured_RNA)
RNA: GGAGGUAGGUGGCGG
For B3, the Kd was 60 ± 18 nM with MBP-hnRNP A1 [1] and 70 ± 21 nM with MBP-hnRNP A1 [2].

B4: Mag 15 nt A7A8 (A8A9 in Table 1) (structured_RNA)
RNA: GGAGGUAGGUAACGG
In the case of B4, the Kd with MBP-hnRNP A1 [1] turned out to be 21 ± 4 nM; with MBP-hnRNP A1 [2], 106 ± 23 nM.

B5: Mag exon 12 5'ss rat wt 29 nt (-12 to 17) (structured_RNA)
RNA: GAGCCCCAGGAGGUAGGUUCCGGGGGCCU
For the molecule B5, the binding result with MBP-hnRNP A1 [3] is on record as “no binding”.

B6: Mag 10 nt wt (-2 to 8) (ssRNA)
RNA: AGGUAGGUUC
B6: the Kd with MBP-hnRNP A1 [2] is 145 ± 12 nM.
